To fix the notation:
T1: biotinylated-AviTag-FICD^H363A (human, UniProt Q9BVA6 104-445, H363A, biotin on the AviTag)
T1 construct: FICD (HYPE), human, residues 104-445 (the limits are those told for all purified FICD proteins); also called N-terminally biotinylated FICD^H363A; UK 2422; not shown: AviTag, N-terminal, kept
T1 sequence (looked up): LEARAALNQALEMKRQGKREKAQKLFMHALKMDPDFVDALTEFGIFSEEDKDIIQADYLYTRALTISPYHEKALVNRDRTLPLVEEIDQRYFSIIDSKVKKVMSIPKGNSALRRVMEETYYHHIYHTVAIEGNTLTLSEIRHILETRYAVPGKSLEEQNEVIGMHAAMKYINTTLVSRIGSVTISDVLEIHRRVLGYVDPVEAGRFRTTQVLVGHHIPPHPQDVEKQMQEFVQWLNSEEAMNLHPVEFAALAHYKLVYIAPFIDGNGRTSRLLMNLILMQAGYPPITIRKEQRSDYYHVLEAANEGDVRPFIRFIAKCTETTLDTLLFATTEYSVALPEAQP

B1: catalytically inactive, dimeric FICD^H363A (residues 104-445) (domain or fragment, human, UniProt Q9BVA6 104-445, looked up)
chain: T1 sequence (looked up)
notes: FICD (HYPE), human, residues 104-445; Dimeric as analyte on BiP; in the rows with m14 and m15 one of its protomers pairs with one labelled protomer; also called dFICD^H363A; UK 1954; source: E. coli T7 Express lysY/Iq, purified (Ni-NTA, on-column Ulp1 cleavage, anion exchange, SEC)
B2: FICD^K256A (residues 104-445) (domain or fragment, human, UniProt Q9BVA6 104-445, looked up)
chain: T1 sequence (looked up) with K153A, A260H
notes: FICD (HYPE), human, residues 104-445; also called dimeric dimer relay mutant FICD^K256A; source: E. coli T7 Express lysY/Iq, purified; gel-filtered into 10 mM Tris-HCl pH 8.0, 150 mM NaCl, 1 mM TCEP for crystallisation
B3: cysteine-free FICD^C421S (residues 104-445) (domain or fragment, human, UniProt Q9BVA6 104-445, looked up)
chain: T1 sequence (looked up) with A260H, C318S
notes: FICD (HYPE), human, residues 104-445; also called UK 2161; source: E. coli T7 Express lysY/Iq, purified by the protocol of the disulphide-linked dimers
B4: FICD^K256S (residues 104-445) (domain or fragment, human, UniProt Q9BVA6 104-445, looked up)
chain: T1 sequence (looked up) with K153S, A260H
notes: FICD (HYPE), human, residues 104-445; also called Lys256Ser; dimer relay mutant; source: E. coli T7 Express lysY/Iq, purified (Ni-NTA, on-column Ulp1 cleavage, anion exchange, SEC)
B5: FICD^E242A (residues 104-445) (domain or fragment, human, UniProt Q9BVA6 104-445, looked up)
chain: T1 sequence (looked up) with E139A, A260H
notes: FICD (HYPE), human, residues 104-445; also called dimer relay mutant; source: E. coli T7 Express lysY/Iq, purified (Ni-NTA, on-column Ulp1 cleavage, anion exchange, SEC)
B6: wild-type FICD (amino acid residues 104-445) (domain or fragment, human, UniProt Q9BVA6 104-445, looked up)
chain: T1 sequence (looked up) with A260H
notes: FICD (HYPE), human, residues 104-445; Homodimer in solution; its rows measure this dimerisation, so copies is left empty; also called HYPE; dFICD; source: E. coli T7 Express lysY/Iq, purified (Ni-NTA, on-column Ulp1 cleavage, anion exchange, SEC)
B7: non-oxidised FICD^A252C-C421S (residues 104-445) (domain or fragment, human, UniProt Q9BVA6 104-445, looked up)
chain: T1 sequence (looked up) with A149C, A260H, C318S
notes: FICD (HYPE), human, residues 104-445; also called non-disulphide-bonded FICD^A252C-C421S; UK 2219; source: E. coli T7 Express lysY/Iq, purified; a separate preparation not subjected to oxidation with glutathione
B8: FICD^G299S (residues 104-445) (domain or fragment, human, UniProt Q9BVA6 104-445, looked up)
chain: T1 sequence (looked up) with G196S, A260H
notes: FICD (HYPE), human, residues 104-445; also called Gly299Ser; source: E. coli T7 Express lysY/Iq, purified (Ni-NTA, on-column Ulp1 cleavage, anion exchange, SEC)
B9: FICD^S288C-H363A-C421S-TMR (dimerisation-sensitive fluorescent probe) (domain or fragment, human, UniProt Q9BVA6 104-445, looked up)
chain: T1 sequence (looked up) with S185C, C318S
modifications: tetramethylrhodamine (TMR-5-maleimide) on Cys288 (labelling efficiency 41%); unlabelled cysteines quenched with NEM
notes: FICD (HYPE), human, residues 104-445; also called FICD-TMR; UK 2473
B10: catalytically inactive, monomeric FICD^L258D-H363A (residues 104-445) (domain or fragment, human, UniProt Q9BVA6 104-445, looked up)
chain: T1 sequence (looked up) with L155D
notes: FICD (HYPE), human, residues 104-445; also called mFICD^H363A; source: E. coli T7 Express lysY/Iq, purified (Ni-NTA, on-column Ulp1 cleavage, anion exchange, SEC)
B11: Oregon Green-labelled FICD^NC (wild-type FICD carrying an N-terminal cysteine) (domain or fragment, human)
chain: CLEARAALNQALEMKRQGKREKAQKLFMHALKMDPDFVDALTEFGIFSEEDKDIIQADYLYTRALTISPYHEKALVNRDRTLPLVEEIDQRYFSIIDSKVKKVMSIPKGNSALRRVMEETYYHHIYHTVAIEGNTLTLSEIRHILETRYAVPGKSLEEQNEVIGMHAAMKYINTTLVSRIGSVTISDVLEIHRRVLGYVDPVEAGRFRTTQVLVGHHIPPHPQDVEKQMQEFVQWLNSEEAMNLHPVEFAALAHYKLVYIHPFIDGNGRTSRLLMNLILMQAGYPPITIRKEQRSDYYHVLEAANEGDVRPFIRFIAKCTETTLDTLLFATTEYSVALPEAQP
modifications: Oregon Green 488 on the N-terminal cysteine (labelling efficiency 74%)
notes: N-terminal cysteine added for site-specific labelling; FICD (HYPE), human, residues 104-445; also called UK 2339; source: E. coli, purified, labelled with Oregon Green 488-iodoacetamide, SEC

In data set [1] the target is T1, biotinylated-AviTag-FICD^H363A. The data set can be described thus: BLI; 3 nM biotinylated-AviTag-FICD^H363A incubated 10 min at 25°C with 300 nM FICD^H363A, hetero-labelled dimers loaded on streptavidin biosensors; dissociation into HKTx with or without 5 mM nucleotide; signal of sensors incubated with FICD^L258D-H363A subtracted; dimer to monomers. The note with it: both partners purified.

In data set [2] the target is B9. The data set can be described thus: other fluorescence titration; 2.5 nM FICD^S288C-H363A-C421S-TMR with unlabelled FICD or nucleotide as titrant in HKTx, 45 min at 10°C; de-quenching of TMR fluorescence (excitation 535 nm, emission 585 nm). The note with it: both partners purified.
For data set [3], the target named is T2, biotinylated-AviTag-haBiP^T229A-V461F (Chinese hamster, UniProt G3I8R9 19-654, T229A | V461F, biotin on the AviTag).
T2 construct: BiP, Chinese hamster; Immobilised nucleotide-free and, where indicated, saturated with 2 mM ATP on the sensor; also called BiP^T229A-V461F:Apo; BiP:ATP
T2 sequence (G3I8R9 19-654 T229A/V461F): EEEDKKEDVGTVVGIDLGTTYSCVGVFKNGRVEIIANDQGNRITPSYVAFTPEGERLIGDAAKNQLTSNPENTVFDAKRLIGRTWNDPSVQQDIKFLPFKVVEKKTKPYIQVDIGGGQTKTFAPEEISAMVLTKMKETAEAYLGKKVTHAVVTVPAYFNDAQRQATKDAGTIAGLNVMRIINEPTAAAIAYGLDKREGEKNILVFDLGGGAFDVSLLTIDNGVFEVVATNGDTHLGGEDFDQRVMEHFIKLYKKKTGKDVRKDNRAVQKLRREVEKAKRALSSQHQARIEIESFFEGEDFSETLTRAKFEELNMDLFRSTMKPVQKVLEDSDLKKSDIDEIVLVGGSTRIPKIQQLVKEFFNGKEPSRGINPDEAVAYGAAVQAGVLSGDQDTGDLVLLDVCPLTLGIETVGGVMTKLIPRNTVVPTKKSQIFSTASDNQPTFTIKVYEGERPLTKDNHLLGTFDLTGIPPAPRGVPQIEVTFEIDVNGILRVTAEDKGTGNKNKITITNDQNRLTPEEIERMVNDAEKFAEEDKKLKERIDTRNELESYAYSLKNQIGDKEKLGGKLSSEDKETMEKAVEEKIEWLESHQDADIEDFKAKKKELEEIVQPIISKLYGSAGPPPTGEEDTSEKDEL
The data set can be described thus: BLI; biotinylated BiP^T229A-V461F immobilised on streptavidin biosensors and saturated with 2 mM ATP; FICD His363Ala variants at 250 nM, association or dissociation without nucleotide or with ATP 8 mM or ADP 2 mM; HKM plus 0.05% Triton X-100, 30°C. The note with it: both partners purified. In general terms: Biolayer interferometry detects binding as a change in optical thickness at a sensor tip.

Data set [4] concerns the molecule itself. The data set can be described thus: crystal structure; sitting drop vapour diffusion, protein at 9 mg/ml in 10 mM Tris-HCl pH 8.0, 150 mM NaCl, 1 mM TCEP, with 10 mM MgATP or MgAMPPNP where applicable.
Data set [5] concerns the molecule itself. The data set can be described thus: SEC; analytical SEC-3 HPLC column in HKMC (50 mM HEPES-KOH pH 7.4, 150 mM KCl, 10 mM MgCl2, 1 mM CaCl2), 25°C; proteins at 20 μM, or at 0.2-50 μM after 16 h at 25°C; approximate Kd from elution peak time against concentration; dimer to monomers.
Data set [6] deals with the molecule itself. The data set can be described thus: other fluorescence titration; 2.5 nM FICD^S288C-H363A-C421S-TMR with unlabelled FICD or nucleotide as titrant in HKTx, 45 min at 10°C; de-quenching of TMR fluorescence (excitation 535 nm, emission 585 nm).
Data set [7] deals with the molecule itself. The data set can be described thus: AUC; fluorescence-detected sedimentation velocity; Oregon Green-labelled FICD from 1.6 μM to 31 pM; 50 mM HEPES-KOH pH 7.4, 150 mM KCl, 10 mM MgCl2, 1 mM CaCl2, 0.3 mM TCEP, 0.1% Tween-20, 0.15 mg/ml BSA; 45,000 rpm, 20°C; monomer-dimer isotherm of signal-averaged s; dimer to monomers.

The values that follow come from article PMC6826200, “An oligomeric state‐dependent switch in the ER enzyme FICD regulates AMPylation and deAMPylation of BiP” (The EMBO Journal, 2019).

Residue numbers refer to the chain shown, from its start. Numbers in names are those of the source. Bounds are passed on as bounds.

For B1, in data set [1], the “fold increase of the dimer dissociation rate with 5 mM ATP against no nucleotide” value came to 3 fold. Moreover, the binding result in data set [2] and in data set [3] was “binds” in each case.
In the case of B2, in data set [4], the stoichiometry N – broadly, the number of molecules, sites or subunits per partner or assembly – is 2 molecules in the biological unit.
For B3, the binding result in data set [5] was “binds”.
For the molecule B4, in data set [5], the Kd – broadly, the constant that tells how readily two partners part at equilibrium – was < 0.4 µM. For the same molecule, the “stoichiometry N” value in data set [4] was 2 molecules in the biological unit.
Regarding B5, in data set [5], the Kd is < 0.4 µM.
For B6, the “stoichiometry N” value was 2 in data set [5] and 2 molecules in the biological unit in data set [4].
For B7, the binding result in data set [5] was “binds”.
In data set [5], B8 gave a Kd of 9.5 µM.
As for B9, the binding result in data set [6] was “binds”.
As to B10, in data set [3], the binding result is “binds”.
As to B11, the Kd in data set [7] turned out to be 1.2 nM.
